Measurements as given in US6730293B1, “Compositions and methods for treating inflammatory diseases of the skin” (CellGate, Inc., priority 1999, dated 2004).
Square brackets hold non-standard residues; d marks the D form. Peptide text beside a SMILES is read from it. * marks the point of attachment. X1 = C[C@]12CCC(=O)C=C1CC[C@@H]1[C@@H]2[C@@H](O)C[C@@]2(C)[C@H]1CC[C@]2(O)C(=O)COC(=O)C*; Biotin = O=C1N[C@H]2[C@H](CS[C@H]2CCCCC(=O)*)N1; Ahx = NCCCCCC(=O)O

Tests used:
skin of nude mice = assay: Penetration of hydrocortisone-biotinylated D-arginine conjugates into skin of nude mice; assay type: in vivo; conditions: back of nude mice, in PBS, 30, 60, 120 minutes
Experimental: Slides were analyzed by fluorescent microscopy.

[1] = tested on: CD3+ T cells in inflamed skin; conditions: mouse, in vivo
[2] = tested on: full thickness human skin grafted onto the back of a SCID mouse; conditions: in vivo
[3] = pH dependent stability / release of releasable Cyclosporin A conjugate; assay type: physicochemical; conditions: acidic pH vs physiological pH, absence of serum
Description: See, e.g., R. E. Handschumacher, et al., Science 226, 544-7 (1984).
Another modification in the design of the releasable conjugate was the use of L-arginine (R), and not D-arginine (r) in the transporter.

[4] = tested on: abdominal skin of nude mice; assay: Penetration of Cu-DTPA-r7 complex into skin of nude mice (blue color); assay type: in vivo; conditions: abdominal region of nude mice, 15, 30 and 45 minutes
Experimental: Metal diethylenetriaminepentaacetic acid (DTPA) complexes were formed by mixing equimolar amounts of metal salts with DTPA in water for 18 hours. At the end of this time, the solutions were centrifuged, frozen and lyophilized. The dried powder was characterized by mass spectrometry and used in solid phase peptide synthesis. The metal-DTPA complexes were attached to polymers of D- or L-arginine that were still attached to solid-phase resin used in peptide synthesis. The metal-DTPA complexes were attached using an aminocaproic acid spacer. The solid phase peptide synthesis techniques were described in Example 1, with the exception that cleavage of the peptide-DTPA -metal complex in trifluoroacetic acid released the metal. The metal is replaced after HPLC purification and lyophilization of the peptide-DTPA complex. Replacement of the metal involved incubation of equimolar amounts of the metal salt with the peptide-aminocaproic acid-DTPA complex and subsequent lyophilization.
Varying concentrations (1 M to 1 mM) of the Cu-DTPA -aca-r7 complex were applied to the abdominal region of nude mice for 15, 30 and 45 minutes. As controls, an equimolar amount of the Cu-DTPA complex was spotted onto the abdominal region.

Compound: C[C@H](NC(=O)[C@H](C)NC(=O)[C@@H](CCCNC(=N)N)NC(=O)[C@@H](CCCNC(=N)N)NC(=O)[C@@H](CCCNC(=N)N)NC(=O)[C@@H](CCCNC(=N)N)NC(=O)[C@@H](CCCNC(=N)N)NC(=O)CCCCCNC(=O)CCCC[C@@H]1SC[C@@H]2NC(=O)N[C@@H]21)C(=O)N[C@@H](CSCC(=O)OCC(=O)[C@@]1(O)CC[C@H]2[C@@H]3CCC4=CC(=O)CC[C@]4(C)[C@H]3[C@@H](O)C[C@@]21C)C(N)=O ({Biotin-Ahx}-[dR][dR][dR][dR][dR]AAC(X1)-NH2)
- penetration into skin (fluorescent streptavidin staining) (skin of nude mice): very little uptake

Compound: C[C@H](NC(=O)[C@H](C)NC(=O)[C@@H](CCCNC(=N)N)NC(=O)[C@@H](CCCNC(=N)N)NC(=O)[C@@H](CCCNC(=N)N)NC(=O)[C@@H](CCCNC(=N)N)NC(=O)[C@@H](CCCNC(=N)N)NC(=O)[C@@H](CCCNC(=N)N)NC(=O)[C@@H](CCCNC(=N)N)NC(=O)CCCCCNC(=O)CCCC[C@@H]1SC[C@@H]2NC(=O)N[C@@H]21)C(=O)N[C@@H](CSCC(=O)OCC(=O)[C@@]1(O)CC[C@H]2[C@@H]3CCC4=CC(=O)CC[C@]4(C)[C@H]3[C@@H](O)C[C@@]21C)C(N)=O ({Biotin-Ahx}-[dR][dR][dR][dR][dR][dR][dR]AAC(X1)-NH2)
- penetration into skin (fluorescent streptavidin staining) (skin of nude mice): effectively entered into and across the epidermis and into the dermis

Compound: C/C=C/C[C@@H](C)[C@@H](OC(=O)CSC[C@H](NC(=O)[C@@H](CCCNC(=N)N)NC(=O)[C@@H](CCCNC(=N)N)NC(=O)[C@@H](CCCNC(=N)N)NC(=O)[C@@H](CCCNC(=N)N)NC(=O)[C@@H](CCCNC(=N)N)NC(=O)[C@@H](CCCNC(=N)N)NC(=O)[C@@H](CCCNC(=N)N)NC(=O)CCCCCNC(=O)CCCC[C@@H]1SC[C@@H]2NC(=O)N[C@@H]21)C(N)=O)[C@H]1C(=O)N[C@@H](CC)C(=O)N(C)CC(=O)N(C)[C@@H](CC(C)C)C(=O)N[C@@H](C(C)C)C(=O)N(C)[C@@H](CC(C)C)C(=O)N[C@@H](C)C(=O)N[C@H](C)C(=O)N(C)[C@@H](CC(C)C)C(=O)N(C)[C@@H](CC(C)C)C(=O)N(C)[C@@H](C(C)C)C(=O)N1C [biotin r7 CsA, B-aca-r7-Cys-O-acyl-Cyclosporin A]
- presence in CD3+ T cells of inflamed skin [1]: found in all CD3[+] T cells
- penetration into human skin [2]: penetrated human epidermis and dermis

Compound: C/C=C/C[C@@H](C)[C@@H](OC(=O)CN(Cc1ccccc1)C(=O)CNCC(=O)N[C@@H](CCCNC(=N)N)C(=O)N[C@@H](CCCNC(=N)N)C(=O)N[C@@H](CCCNC(=N)N)C(=O)N[C@@H](CCCNC(=N)N)C(=O)N[C@@H](CCCNC(=N)N)C(=O)N[C@@H](CCCNC(=N)N)C(=O)N[C@@H](CCCNC(=N)N)C(N)=O)[C@H]1C(=O)N[C@@H](CC)C(=O)N(C)CC(=O)N(C)[C@@H](CC(C)C)C(=O)N[C@@H](C(C)C)C(=O)N(C)[C@@H](CC(C)C)C(=O)N[C@@H](C)C(=O)N[C@H](C)C(=O)N(C)[C@@H](CC(C)C)C(=O)N(C)[C@@H](CC(C)C)C(=O)N(C)[C@@H](C(C)C)C(=O)N1C [releasable R7 CsA conjugate]
- pH stability [3]: stable at acidic pH, but labile at physiological pH

Compound: Copper-diethylenetriaminepentaacetic Acid Complex [Cu-DTPA]
- blue color on skin after wiping off [4]: not where the Cu-DTPA alone was spotted
